Residue numbers refer to the chain shown, from its start. Names and notes keep the numbering of the source.
B1: BrGTR2-A2: Brassica rapa GTR2-A2 protein, SEQ ID NO: 66 (protein, listed as Brassica rapa)
chain: MERKPLEVESTDHQKPSSAVYDGSATAVDSVEEEVQETKLVYRGWKVMPFIIGNETFEKLGIIGTLSNLLVYLTAVFNMKSITAATIINAFSGTINFGTFVAAFLCDTYFGRYKTLTVAVIACFLGSLVILLTAAVPQLHPAPCGIALTCTGPSGGQIAFLLMGLAFLVVGAGGIRPCNLAFGADQFNPKSESGKRGIDSFFNWYFFTFTFAQILSLTLVVYIQSNVSWTIGLTIPVVLMFLACVIFFAGDKLYVKIKASGSPLASIAQVITVAIKKRGLKAVKQPWVNLYNYYPLNYANSKLKYTDQFRFLDKAAILAPEDKLEADGKPTDPWKLCTMQQVEEVKCIVRVLPIWFASSIYYLTITQQMTYPVFQALQSDRRLGSGGFVIPAATYVVFLMTGMTVFIIIYDRVLVPTLRRITGIDTGITLLQRIGTGIFFAFLSLVVSGFVEERRRTFALTKPTLGMAPRKGEISSMSAMWLIPQLTLAGVAEAFGAIGQMEFYYKQFPENMRSFAGSIFYVGGGVSSYLGSFLIATVHRTTQNSAGGNWLAEDLNKGRLDLFYFMIAGILAVNFAYFLVMSRWYRYKGSDDEVTAYETNGDVIKQQDKNKV
B2: BrGTR2 (G145R): BrGTR2-A2 protein with Gly to Arg at position 145 of SEQ ID NO: 66 (protein, listed as Brassica rapa)
chain: B1 chain with G145R
B3: BrGTR2 (S359F): BrGTR2-A2 protein with Ser to Phe at position 359 of SEQ ID NO: 66 (protein, listed as Brassica rapa)
chain: B1 chain with S359F
B4: BrGTR2 (E192K): BrGTR2-A2 protein with Glu to Lys at position 192 of SEQ ID NO: 66 (protein, listed as Brassica rapa)
chain: B1 chain with E192K
B5: BrGTR2 (G126R): BrGTR2-A2 protein with Gly to Arg at position 126 of SEQ ID NO: 66 (protein, listed as Brassica rapa)
chain: B1 chain with G126R

System: Xenopus oocytes
Assay: 4-MTB uptake in Xenopus oocytes expressing wildtype or mutant BrGTR2-A2 proteins
Format: cell-based
Conditions: 0.5 mM 4-MTB for one hour

Row | Molecule | 4-MTB imported (pH 5, non-injected oocytes no detectable uptake) | 4-MTB uptake activity of mutant BrGTR2-A2 protein versus wildtype
1 | B1 | about 2.5 nmol 4-MTB per hour per oocyte | –
2 | B2 | – | no significant change in uptake of 4-MTB
3 | B3 | – | increased uptake activity
4 | B4 | – | reduction in glucosinolate uptake
5 | B5 | – | almost no uptake activity

Reference: patent publication US20140137294A1, “GLUCOSINOLATE TRANSPORTER PROTEIN AND USES THEREOF” (UNIVERSITY OF COPENHAGEN, priority 2010, published 2014)
